Source: US20160272690A1
Bridges are numbered along the chain shown (N, C = ends). Where no end group is shown, it is not given here. [ ]: non-standard residue; d: D form. hCys = N[C@@H](CCS)C(=O)O; Orn = NCCC[C@H](N)C(=O)O; Dab = NCC[C@H](N)C(=O)O

Target: TEAD
Test: IC50 for TEAD binding (TR-FRET test)

TEAD, sequence (P28347 209-426): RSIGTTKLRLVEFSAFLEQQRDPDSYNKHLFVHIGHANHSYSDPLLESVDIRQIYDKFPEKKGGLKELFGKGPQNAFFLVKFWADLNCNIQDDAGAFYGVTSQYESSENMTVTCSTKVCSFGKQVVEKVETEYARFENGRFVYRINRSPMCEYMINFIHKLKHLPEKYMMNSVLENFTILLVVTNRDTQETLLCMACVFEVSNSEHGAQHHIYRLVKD

IC50 | Binder
43 nM | VPF[hCys]LR[Orn]LPDSFCKPPE (disulfide 4-13) [polypeptide represented by SEQ ID NO.: 5]
28 nM | VPF[hCys]LR[Dab]LPDSFCKPPE (disulfide 4-13) [polypeptide represented by SEQ ID NO.: 6]
